Test results from the Human Domainome abundance scans (Beltran et al. 2025).
± gives the uncertainty stated by the source.

B1: Zinc finger protein ZIC 2, residues 250 to 295; numbered along this chain, O95409 (parent)
chain: QCIKQELICKWIDPEQLSNPKKSCNKTFSTMHELVTHVSVEHVGGP

Variants of: B1
Test: abundance fitness (aPCA) (normalised: wild type 0, dead -1); higher = more abundant; growth selection in yeast, the domain comes from the species named
Conditions: Homo sapiens

| Variant | abundance fitness |
| --- | --- |
| QCIKQELICKWIDPEQLSNPKKSCNKTFSTMHELVTHVSKEHVGGP [V40K] | -0.122 ± 0.1 |
| QCIKQELICKWIDPEQLSNPKKSCNKTFSTMHELVTHVSYEHVGGP [V40Y] | -0.275 ± 0.12 |
| QCIKQELICKWIDPEQLSNPKKSCNKTFSTMHELVTHVSREHVGGP [V40R] | -0.134 ± 0.086 |
| QCIKQELICKWIDPEQLSNPKKSCNKTFSTMHELVTHVSEEHVGGP [V40E] | 0.062 ± 0.092 |
| QCIKQELICKWIDPEQLSNPKKSCNKTFSTMHELVTHVSHEHVGGP [V40H] | -0.136 ± 0.13 |
| QCIKQELICKWIDPEQLSNPKKSCNKTFSTMHELVTHVSNEHVGGP [V40N] | 0.075 ± 0.11 |
| QCIKQELICKWIDPEQLSNPKKSCNKTFSTMHELVTHVSLEHVGGP [V40L] | -0.363 ± 0.096 |
| QCIKQELICKWIDPEQLSNPKKSCNKTFSTMHELVTHVSTEHVGGP [V40T] | -0.073 ± 0.1 |
| QCIKQELICKWIDPEQLSNPKKSCNKTFSTMHELVTHVSFEHVGGP [V40F] | -0.549 ± 0.11 |
| QCIKQELICKWIDPEQLSNPKKSCNKTFSTMHELVTHVSGEHVGGP [V40G] | 0.05 ± 0.084 |
| QCIKQELICKWIDPEQLSNPKKSCNKTFSTMHELVTHVSWEHVGGP [V40W] | -0.581 ± 0.1 |
| QCIKQELICKWIDPEQLSNPKKSCNKTFSTMHELVTHVSIEHVGGP [V40I] | -0.01 ± 0.11 |
| QCIKQELICKWIDPEQLSNPKKSCNKTFSTMHELVTHGSVEHVGGP [V38G] | -0.095 ± 0.084 |
| QCIKQELICKWIDPEQLSNPKKSCNKTFSTMHELVTHKSVEHVGGP [V38K] | 0.623 ± 0.097 |
| QCIKQELICKWIDPEQLSNPKKSCNKTFSTMHELVTHTSVEHVGGP [V38T] | 0.052 ± 0.1 |
| QCIKQELICKWIDPEQLSNPKKSCNKTFSTMHELVTHHSVEHVGGP [V38H] | -0.121 ± 0.11 |
| QCIKQELICKWIDPEQLSNPKKSCNKTFSTMHELVTHWSVEHVGGP [V38W] | 0.82 ± 0.09 |
| QCIKQELICKWIDPEQLSNPKKSCNKTFSTMHELVTHNSVEHVGGP [V38N] | 0.035 ± 0.13 |
| QCIKQELICKWIDPEQLSNPKKSCNKTFSTMHELVTHESVEHVGGP [V38E] | 0.518 ± 0.095 |

| Variant | abundance fitness |
| --- | --- |
| QCIKQELICKWIDPEQLSNPKKSCNKTFSTMHELVTHFSVEHVGGP [V38F] | 0.08 ± 0.13 |
| QCIKQELICKWIDPEQLSNPKKSCNKTFSTMHELVTHPSVEHVGGP [V38P] | -0.417 ± 0.12 |
| QCIKQELICKWIDPEQLSNPKKSCNKTFSTMHELVTHRSVEHVGGP [V38R] | 0.607 ± 0.083 |
| QCIKQELICKWIDPEQLSNPKKSCNKTFSTMHELVTHLSVEHVGGP [V38L] | -0.165 ± 0.091 |
| QCIKQELICKWIDPEQLSNPKKSCNKTFSTMHELVTHQSVEHVGGP [V38Q] | 0.43 ± 0.11 |
| QCIKQELICKWIDPEQLSNPKKSCNKTFSTMHELVTHYSVEHVGGP [V38Y] | 0.066 ± 0.12 |
| QCIKQELICKWIDPEQLSNPKKSCNKTFSTMHELVTHSSVEHVGGP [V38S] | 0.202 ± 0.088 |
| QCIKQELICKWIDPEQLSNPKKSCNKTFSTMHELVTHASVEHVGGP [V38A] | -0.161 ± 0.093 |
| QCIKQELICKWIDPEQLSNPKKSCNKTFSTMHELVTHMSVEHVGGP [V38M] | 0.278 ± 0.1 |
| QCIKQELICKWIDPEQLSNPKKSCNKTFSTMHELVTHDSVEHVGGP [V38D] | -0.159 ± 0.1 |
| QCIKQELICKWIDPEQLSNPKKSCNKTFSTMHELVTHISVEHVGGP [V38I] | -0.021 ± 0.1 |
| QCIKQELICKWIDPEQLSNPKKSCNKTFSTMHELVTHCSVEHVGGP [V38C] | -0.066 ± 0.1 |
| QCIKQELICKWIDPEQLSNPKKSCNKTFSTMHELVTHVSVEEVGGP [H42E] | -1.07 ± 0.13 |
| QCIKQELICKWIDPEQLSNPKKSCNKTFSTMHELVTHVSVECVGGP [H42C] | -1.16 ± 0.14 |
| QCIKQELICKWIDPEQLSNPKKSCNKTFSTMHELVTHVSVEAVGGP [H42A] | -0.689 ± 0.096 |
| QCIKQELICKWIDPEQLSNPKKSCNKTFSTMHELVTHVSVEGVGGP [H42G] | -0.661 ± 0.091 |
| QCIKQELICKWIDPEQLSNPKKSCNKTFSTMHELVTHVSVEDVGGP [H42D] | -1.01 ± 0.12 |
| QCIKQELICKWIDPEQLSNPKKSCNKTFSTMHELVTHVSVEFVGGP [H42F] | -1.04 ± 0.13 |
| QCIKQELICKWIDPEQLSNPKKSCNKTFSTMHELVTDVSVEHVGGP [H37D] | -0.457 ± 0.13 |

| Variant | abundance fitness |
| --- | --- |
| QCIKQELICKWIDPEQLSNPKKSCNKTFSTMHELVTPVSVEHVGGP [H37P] | -0.787 ± 0.14 |
| QCIKQELICKWIDPEQLSNPKKSCNKTFSTMHELVTMVSVEHVGGP [H37M] | -0.728 ± 0.13 |
| QCIKQELICKWIDPEQLSNPKKSCNKTFSTMHELVTWVSVEHVGGP [H37W] | -0.953 ± 0.15 |
| QCIKQELICKWIDPEQLSNPKKSCNKTFSTMHELVTGVSVEHVGGP [H37G] | -0.565 ± 0.11 |
| QCIKQELICKWIDPEQLSNPKKSCNKTFSTMHELVTKVSVEHVGGP [H37K] | -0.806 ± 0.15 |
| QCIKQELICKWIDPEQLSNPKKSCNKTFSTMHELVTIVSVEHVGGP [H37I] | -1 ± 0.26 |
| QCIKQELICKWIDPEQLSNPKKSCNKTFSTMHELVTEVSVEHVGGP [H37E] | -0.611 ± 0.15 |
| QCIKQELICKWIDPEQLSNPKKSCNKTFSTMHELVTFVSVEHVGGP [H37F] | -1.1 ± 0.22 |
| QCIKQELICKWIDPEQLSNPKKSCNKTFSTMHELVTLVSVEHVGGP [H37L] | -0.741 ± 0.11 |
| QCIKQELICKWIDPEQLSNPKKSCNKTFSTMHELVTCVSVEHVGGP [H37C] | -1.5 ± 0.23 |
| QCIKQELICKWIDPEQLSNPKKSCNKTFSTMHELVTQVSVEHVGGP [H37Q] | -0.93 ± 0.15 |
| QCIKQELICKWIDPEQLSNPKKSCNKTFSTMHELVTTVSVEHVGGP [H37T] | -0.903 ± 0.14 |
| QCIKQELICKWIDPEQLSNPKKSCNKTFSTMHELVTNVSVEHVGGP [H37N] | -0.747 ± 0.19 |
| QCIKQELICKWIDPEQLSNPKKSCNKTFSTMHELVTSVSVEHVGGP [H37S] | -0.856 ± 0.15 |
| QCIKQELICKWIDPEQLSNPKKSCNKTFSTMHELVTRVSVEHVGGP [H37R] | -0.789 ± 0.11 |
| QCIKQELICKWIDPEQLSNPKKSCNKTFSTMHELVTYVSVEHVGGP [H37Y] | -0.951 ± 0.14 |
| QCIKQELICKWIDPEQLSNPKKSCNKTFSTMHELVTAVSVEHVGGP [H37A] | -0.683 ± 0.12 |
| QCIKQELICKWIDPEQLSNPKKSCNKTFSTMHELVTVVSVEHVGGP [H37V] | -0.904 ± 0.11 |
